# Experimental data as given in patent US20240189443A1, “PD-L1 AND TLR7 DOUBLE-TARGETING NANOBODY COUPLING DRUG AND USE THEREOF IN ANTI-TUMOR” (SHANGHAI INSTITUTE OF MATERIA MEDICA, CHINESE ACADEMY OF …, priority 2021, published 2024).
# “And” between values parts separate entries of the source, which are not always exact repeats. Identical values can stand only once.
# How the values were obtained:
# [1] = tested on: IFN-γ-induced high-expression PD-L1 CT26; assay: IFN-γ-induced high-expression PD-L1 CT26 subcutaneous tumor-bearing model, conjugate vs combined administration; type: in vivo, BALB/c mouse; conditions: Nb16 or Nb16-SZU-101 10 mg/kg, SZU-101 0.5 mg/kg, intraperitoneal
# Procedure: In an IFN-γ-induced high-expression PD-L1 CT26 subcutaneous tumor-bearing BALB/c mouse model, mice were randomly divided into four groups, namely an mFc group, an Nb16 group, an Nb16/SZU-101 combined administration group and an NB16-SZU-101 nanobody conjugate drug group, wherein the administration dosage of the mFc or Nb 16 or Nb16-SZU-101 was 10 mg/kg, the administration mode was intraperitoneal administration, the administration dosage of the SZU-101 was 0.5 mg/kg, and the administration mode was intraperitoneal administration; the drug was administered on Day 2, Day 6, Day 10 and Day 13 for a total of 4 times. Tumor sizes were measured 2-3 times per week, and tumor growth curves were drawn; and anatomical weighing and photographing were performed on mice at Day 14.
# B16-F10 cells = assay: Uninduced B16-F10 subcutaneous tumor-bearing model with low expression PD-L1; type: in vivo, C57BL/6 mouse; conditions: 10 mg/kg intraperitoneal
# Procedure: The 6 to 8-week-old C57BL 6 mice were randomly divided into two groups, which were respectively as an mFc group and a nanobody-coupled drug NB 16-SZU-101 group. 1×10^6 B16-F10 cells (FIG. 9A) of 1×10^6 non-induced low-expression PD-L1 were planted under the underarm skin of mice (FIG. 9A). Administration was performed by using mFc and nanobody coupled drug Nb16-SZU-101, respectively; the administration dosage of the control drug and Nb16-SZU-101 was 10 mg/kg, and the volume is 200 μL; each group of drug delivery manners was intraperitoneal injection. Each group was administered at 2th, 5th, 8th and 11th days after tumor implantation, respectively, and the drug was administered for […]. On Day 12 mice would be euthanized.
# non-induced CT26 = assay: Uninduced (low expression) PD-L1 CT26 subcutaneous tumor-bearing model; type: in vivo, BALB/c mouse; conditions: 10 mg/kg intraperitoneal, 4 doses
# Source text: (§1) In FIG. 8A, it has been shown that the non-induced CT26 cell surface PD-L1 expression is approximately 17.3%, and the expression level of PD-L1 is increased to 98.1% only after IFN-γ induction. Therefore, we researched and compared the effects of the coupling compound in the non-induced and induced CT26 mouse tumor model, respectively.
# (§2) In the two models, CT26 tumor cells were subcutaneously inoculated into female BALB/c mice before and after induction respectively to construct tumor-bearing mouse models, and the inoculation amount was 1×10^6 cells/one; the mice are randomly divided into two groupswith 6 mice of each group, that is, a blank control group mFc (the concentration is 10 mg/kg), and a coupling compound Nb16-SZU-101 group (the concentration was 10 mg/kg); the administration dosage was 200 μl, and the administration modes were both intraperitoneal administration; administration was performed on Day 2, Day 5, Day 8 and Day 11 respectively, and administration was carried out for 4 times; the size of the tumor was measured for 2-3 times every week, and a tumor growth curve was drawn; and anatomical weighing and photographing were performed on the mouse at Day 12.
# induced CT26 = assay: Induced (high expression) PD-L1 CT26 subcutaneous tumor-bearing model; type: in vivo, BALB/c mouse; conditions: 10 mg/kg intraperitoneal, 4 doses
# Source text: as §1, §2
# [2] = tested on: CD4+T cells, CD8+T cells, NK cells, macrophages; assay: Immune cell deletion analysis of conjugate efficacy; type: in vivo, Balb/c mice
# Source text: Balb/c mice were randomized into 6 groups of 6 mouse each. Corresponding groups are: MFC group, Nb16-SZU-101 group, Nb16-SZU-101+anti-CD4 group, Nb16-SZU-101+anti-CD8 group, Nb16-SZU-101+anti-NK1.1 group, Nb16-SZU-101+chlorophosphate liposome group. The administration of the mFc and Nb16-SZU-101 was consistent with example 8.1.
# The immune cell deletion method comprised: deleting corresponding immune cells (CD4+T cells, CD8+T cells, NK cells) by intraperitoneal injection of antibody drugs (anti-CD4, anti-CD8, anti-NK1.1) respectively in Day 3 (200 ug/one)/Day 4 (100 ug/one)/Day 5 (100 ug/one), or intraperitoneal injection of chlorophosphate-liposomes to remove macrophages.
# On Day 14 the mice would be euthanized.
molecule,measurement,setting,value
"Nb16-SZU-101: PD-L1 and TLR7 dual-targeting nanobody coupling drug, Nb16 coupled with SZU-101-NHS active ester (conjugate, left off: a dimerising Fc or GST) QVQLQESGGGSVQAGGSLRLSCAASGYTDRNYWMGWFRQAPGKEREGVAALYTRTGSTYYADSVKGRFTISHDNAKNTLYLQMNSLKPEDTAVYYCAADSNAYGLAPLHHYWGQGTQVTVSS",Tumor inhibitory rate,"[1]; Day 14, 4 doses",81%
same,Anti-tumor effect,[1],significantly improved anti-tumor effect
same,Endpoint tumor Weight,"[1]; individual mice, Day 14, 4 doses",0.191 g and 0.146 g and 0.155 g and 0.084 g and 0.012 g and 0.087 g
same,Tumor inhibition rate,B16-F10 cells,about 68.2%
same,Tumor growth inhibition rate,non-induced CT26,78.9%
same,Tumor growth inhibition rate,induced CT26,83.6%
same,Effect of deletion of CD4+T cells and macrophages on efficacy,[2]; anti-CD4 or chlorophosphate liposomes intraperitoneal,little influence on the efficacy
same,Effect of deletion of CD8+T cells and NK cells on efficacy,[2]; anti-CD8 or anti-NK1.1 intraperitoneal,greatly affects the efficacy
